Measurements: the supplement of paper PMC9116672
± gives the standard deviation of the averaged measurements or the uncertainty stated by the source.

How the values were obtained:
[1] = duplex melting temperature (HRM, EvaGreen); higher = more stable duplex
Experimental: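 Listed DNA strand annealed 1:1 with its complementary strand (95 °C 5 min, 0.1 °C/s to 20 °C). Melted in 1x NNE buffer (500 mM NaCl, 10 mM Na2HPO4, 1 mM EDTA, pH 7.0) with 1x EvaGreen on a LightCycler96 (37 to 97 °C, 0.1 °C/s). Tm is the peak of -dF/dT at the stated total duplex concentration; 4 replicates are averaged. PS oligos are non-stereospecific (Rp/Sp mixtures).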

[2] = duplex formation free energy ΔG50 (Van't Hoff fit of HRM Tm); higher = less stable duplex; details: temperature for dG: 50 °C, NaCl: 500 mM (unadjusted)
Experimental: (§1)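 Duplex of the listed DNA strand with its complement, in 1x NNE buffer (500 mM NaCl, pH 7.0) with 1x EvaGreen. ΔH and ΔS come from a Van't Hoff linear fit of 1/Tm against ln(CT/4) over 1-20 uM, using HRM Tm values.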

[3] = duplex formation enthalpy ΔH (Van't Hoff fit of HRM Tm); higher = less exothermic duplex formation; details: temperature for dG: 50 °C, NaCl: 500 mM (unadjusted)
Experimental: as §1

[4] = duplex formation entropy ΔS (Van't Hoff fit of HRM Tm); higher = smaller entropy loss on duplex formation; details: temperature for dG: 50 °C, NaCl: 500 mM (unadjusted)
Experimental: as §1

[5] = duplex concentration 2.5 µM, backbone: PS-PO (listed strand fully phosphorothioate, complement phosphodiester)
[6] = duplex concentration 2.5 µM, backbone: PS-PS (both strands fully phosphorothioate)
[7] = duplex concentration 5 µM, backbone: PO-PO (both strands phosphodiester DNA)
[8] = duplex concentration 5 µM, backbone: PS-PO (listed strand fully phosphorothioate, complement phosphodiester)
[9] = duplex concentration 5 µM, backbone: PS-PS (both strands fully phosphorothioate)
[10] = duplex concentration 7.5 µM, backbone: PO-PO (both strands phosphodiester DNA)
[11] = duplex concentration 7.5 µM, backbone: PS-PO (listed strand fully phosphorothioate, complement phosphodiester)
[12] = duplex concentration 7.5 µM, backbone: PS-PS (both strands fully phosphorothioate)
[13] = duplex concentration 10 µM, backbone: PO-PO (both strands phosphodiester DNA)
[14] = duplex concentration 10 µM, backbone: PS-PO (listed strand fully phosphorothioate, complement phosphodiester)
[15] = duplex concentration 10 µM, backbone: PS-PS (both strands fully phosphorothioate)
[16] = duplex concentration 15 µM, backbone: PO-PO (both strands phosphodiester DNA)
[17] = duplex concentration 15 µM, backbone: PS-PO (listed strand fully phosphorothioate, complement phosphodiester)
[18] = duplex concentration 15 µM, backbone: PS-PS (both strands fully phosphorothioate)
[19] = duplex concentration 20 µM, backbone: PO-PO (both strands phosphodiester DNA)
[20] = duplex concentration 20 µM, backbone: PS-PO (listed strand fully phosphorothioate, complement phosphodiester)
[21] = duplex concentration 20 µM, backbone: PS-PS (both strands fully phosphorothioate)
[22] = backbone: PO-PO (both strands phosphodiester DNA)
[23] = backbone: PS-PO (listed strand fully phosphorothioate, complement phosphodiester)
[24] = backbone: PS-PS (both strands fully phosphorothioate)
[25] = duplex concentration 1 µM, backbone: PO-PO (both strands phosphodiester DNA)
[26] = duplex concentration 1 µM, backbone: PS-PO (listed strand fully phosphorothioate, complement phosphodiester)
[27] = duplex concentration 1 µM, backbone: PS-PS (both strands fully phosphorothioate)
[28] = duplex concentration 2.5 µM, backbone: PO-PO (both strands phosphodiester DNA)

Work on ACGGGTCGTTCCGTG yielded a duplex melting temperature [1, 5] of 60.97 ± 0.26 °C, a duplex melting temperature [1, 6] of 56.07 ± 0.25 °C and a duplex melting temperature [1, 7] of 71.45 ± 0.49 °C. It also gave a duplex melting temperature [1, 8] of 63.292 ± 0.043 °C, a duplex melting temperature [1, 9] of 58.82 ± 0.085 °C and a duplex melting temperature [1, 10] of 73.32 ± 0.23 °C. For the same sequence, the duplex melting temperature [1, 11] was 64.64 ± 0.1 °C, the duplex melting temperature [1, 12] was 60 ± 0.17 °C and the duplex melting temperature [1, 13] was 74.34 ± 0.26 °C. It also gave a duplex melting temperature [1, 14] of 65.62 ± 0.087 °C, a duplex melting temperature [1, 15] of 60.71 ± 0.21 °C and a duplex melting temperature [1, 16] of 75.77 ± 0.15 °C. It also gave a duplex melting temperature [1, 17] of 67.006 ± 0.054 °C, a duplex melting temperature [1, 18] of 61.81 ± 0.19 °C and a duplex melting temperature [1, 19] of 76.55 ± 0.13 °C. For the same sequence, the duplex melting temperature [1, 20] was 68.03 ± 0.2 °C, the duplex melting temperature [1, 21] was 62.74 ± 0.27 °C and the “duplex formation free energy ΔG50” value [2, 22] was -13.1 ± 0.37 kcal/mol. For the same sequence, the “duplex formation free energy ΔG50” value [2, 23] was -11.37 ± 0.043 kcal/mol, the “duplex formation free energy ΔG50” value [2, 24] was -10.5 ± 0.13 kcal/mol and the “duplex formation enthalpy ΔH” value [3, 22] was -68.9 ± 5.2 kcal/mol. The “duplex formation enthalpy ΔH” value [3, 23] was -67 ± 0.95 kcal/mol, the “duplex formation enthalpy ΔH” value [3, 24] was -70.7 ± 4.1 kcal/mol and the “duplex formation entropy ΔS” value [4, 22] was -173 ± 15 cal/mol/K. The “duplex formation entropy ΔS” value [4, 23] was -172 ± 2.8 cal/mol/K and the “duplex formation entropy ΔS” value [4, 24] was -186 ± 12 cal/mol/K.
With ACATGACTCATCTTAGCCGGCGAG the duplex melting temperature [1, 25] was 77.5 ± 1.1 °C, the duplex melting temperature [1, 26] was 71.03 ± 0.65 °C and the duplex melting temperature [1, 27] was 63.8 ± 0.81 °C. The duplex melting temperature [1, 28] was 79.47 ± 0.48 °C, the duplex melting temperature [1, 5] was 72.33 ± 0.54 °C and the duplex melting temperature [1, 6] was 65.78 ± 0.62 °C. The duplex melting temperature [1, 7] was 80.58 ± 0.42 °C, the duplex melting temperature [1, 8] was 73.6 ± 0.59 °C and the duplex melting temperature [1, 9] was 67.03 ± 0.46 °C. It also gave a duplex melting temperature [1, 10] of 81.54 ± 0.25 °C, a duplex melting temperature [1, 11] of 74.24 ± 0.52 °C and a duplex melting temperature [1, 12] of 68.06 ± 0.18 °C. For the same sequence, the duplex melting temperature [1, 13] was 82.18 ± 0.17 °C, the duplex melting temperature [1, 14] was 75.03 ± 0.16 °C and the duplex melting temperature [1, 15] was 68.59 ± 0.11 °C. For the same sequence, the duplex melting temperature [1, 16] was 82.95 ± 0.13 °C, the duplex melting temperature [1, 17] was 75.79 ± 0.14 °C and the duplex melting temperature [1, 18] was 69.29 ± 0.1 °C. The duplex melting temperature [1, 19] was 83.69 ± 0.2 °C, the duplex melting temperature [1, 20] was 76.42 ± 0.052 °C and the duplex melting temperature [1, 21] was 69.97 ± 0.13 °C. For the same sequence, the “duplex formation free energy ΔG50” value [2, 22] was -19.9 ± 0.5 kcal/mol, the “duplex formation free energy ΔG50” value [2, 23] was -17.8 ± 0.41 kcal/mol and the “duplex formation free energy ΔG50” value [2, 24] was -14.53 ± 0.14 kcal/mol. The “duplex formation enthalpy ΔH” value [3, 22] was -128 ± 5.6 kcal/mol, the “duplex formation enthalpy ΔH” value [3, 23] was -133 ± 5.9 kcal/mol and the “duplex formation enthalpy ΔH” value [3, 24] was -115 ± 2.6 kcal/mol. The “duplex formation entropy ΔS” value [4, 22] was -336 ± 16 cal/mol/K, the “duplex formation entropy ΔS” value [4, 23] was -356 ± 17 cal/mol/K and the “duplex formation entropy ΔS” value [4, 24] was -311 ± 7.6 cal/mol/K.
With ATAACTTACTCTCGCCT the duplex melting temperature [1, 25] was 63.6 ± 0.52 °C, the duplex melting temperature [1, 26] was 53.9 °C and the duplex melting temperature [1, 27] was 47.36 ± 0.27 °C. It also gave a duplex melting temperature [1, 28] of 65.26 ± 0.45 °C, a duplex melting temperature [1, 5] of 56.75 ± 0.23 °C and a duplex melting temperature [1, 6] of 50.73 ± 0.41 °C. For the same sequence, the duplex melting temperature [1, 7] was 67.07 ± 0.61 °C, the duplex melting temperature [1, 8] was 59 ± 0.16 °C and the duplex melting temperature [1, 9] was 53.03 ± 0.18 °C. The duplex melting temperature [1, 10] was 68.39 ± 0.58 °C, the duplex melting temperature [1, 11] was 60.21 ± 0.15 °C and the duplex melting temperature [1, 12] was 54.3 ± 0.082 °C. It also gave a duplex melting temperature [1, 13] of 69.34 ± 0.46 °C, a duplex melting temperature [1, 14] of 61.01 ± 0.18 °C and a duplex melting temperature [1, 15] of 55.17 ± 0.085 °C. The duplex melting temperature [1, 16] was 70.85 ± 0.28 °C, the duplex melting temperature [1, 17] was 62.23 ± 0.12 °C and the duplex melting temperature [1, 18] was 56.32 ± 0.24 °C. For the same sequence, the duplex melting temperature [1, 19] was 72.01 ± 0.25 °C, the duplex melting temperature [1, 20] was 63.109 ± 0.04 °C and the duplex melting temperature [1, 21] was 57.138 ± 0.039 °C. For the same sequence, the “duplex formation free energy ΔG50” value [2, 22] was -12.7 ± 0.29 kcal/mol, the “duplex formation free energy ΔG50” value [2, 23] was -10.65 ± 0.042 kcal/mol and the “duplex formation free energy ΔG50” value [2, 24] was -9.287 ± 0.031 kcal/mol. The “duplex formation enthalpy ΔH” value [3, 22] was -77.8 ± 5.4 kcal/mol, the “duplex formation enthalpy ΔH” value [3, 23] was -71.9 ± 1.4 kcal/mol and the “duplex formation enthalpy ΔH” value [3, 24] was -64.9 ± 2.1 kcal/mol. For the same sequence, the “duplex formation entropy ΔS” value [4, 22] was -201 ± 16 cal/mol/K, the “duplex formation entropy ΔS” value [4, 23] was -190 ± 4 cal/mol/K and the “duplex formation entropy ΔS” value [4, 24] was -172 ± 6.5 cal/mol/K.
CGGCGCGCTG gave a duplex melting temperature [1, 27] of 44.8 ± 1.1 °C, a duplex melting temperature [1, 28] of 66.4 °C and a duplex melting temperature [1, 6] of 47 ± 1.1 °C. For the same sequence, the duplex melting temperature [1, 7] was 67.7 ± 0.9 °C, the duplex melting temperature [1, 8] was 64.9 ± 1.3 °C and the duplex melting temperature [1, 9] was 50 ± 1.2 °C. The duplex melting temperature [1, 10] was 69.25 ± 0.52 °C, the duplex melting temperature [1, 11] was 66.2 ± 0.84 °C and the duplex melting temperature [1, 13] was 70.35 ± 0.13 °C. The duplex melting temperature [1, 14] was 67.43 ± 0.12 °C, the duplex melting temperature [1, 16] was 70.84 ± 0.39 °C and the duplex melting temperature [1, 17] was 68.41 ± 0.079 °C. It also gave a duplex melting temperature [1, 19] of 72.07 ± 0.61 °C and a duplex melting temperature [1, 20] of 69.27 ± 0.21 °C.
For TATTCTGCCAATGGAAC, the duplex melting temperature [1, 25] was 61.28 ± 0.28 °C, the duplex melting temperature [1, 26] was 52.9 °C and the duplex melting temperature [1, 27] was 45.3 ± 0.74 °C. It also gave a duplex melting temperature [1, 28] of 63.72 ± 0.46 °C, a duplex melting temperature [1, 5] of 56.19 ± 0.12 °C and a duplex melting temperature [1, 6] of 48.29 ± 0.081 °C. It also gave a duplex melting temperature [1, 7] of 65.46 ± 0.21 °C, a duplex melting temperature [1, 8] of 58.32 ± 0.085 °C and a duplex melting temperature [1, 9] of 50.06 ± 0.16 °C. The duplex melting temperature [1, 10] was 66.751 ± 0.054 °C, the duplex melting temperature [1, 11] was 59.47 ± 0.085 °C and the duplex melting temperature [1, 12] was 51.303 ± 0.046 °C. The duplex melting temperature [1, 13] was 67.63 ± 0.082 °C, the duplex melting temperature [1, 14] was 60.21 ± 0.12 °C and the duplex melting temperature [1, 15] was 52.24 ± 0.13 °C. For the same sequence, the duplex melting temperature [1, 16] was 68.883 ± 0.048 °C, the duplex melting temperature [1, 17] was 61.27 ± 0.062 °C and the duplex melting temperature [1, 18] was 53.39 ± 0.22 °C. For the same sequence, the duplex melting temperature [1, 19] was 69.87 ± 0.1 °C, the duplex melting temperature [1, 20] was 62.27 ± 0.081 °C and the duplex melting temperature [1, 21] was 54.28 ± 0.14 °C. The “duplex formation free energy ΔG50” value [2, 22] was -12.43 ± 0.11 kcal/mol, the “duplex formation free energy ΔG50” value [2, 23] was -10.59 ± 0.059 kcal/mol and the “duplex formation free energy ΔG50” value [2, 24] was -8.755 ± 0.02 kcal/mol. For the same sequence, the “duplex formation enthalpy ΔH” value [3, 22] was -79.9 ± 2.2 kcal/mol, the “duplex formation enthalpy ΔH” value [3, 23] was -75.2 ± 2 kcal/mol and the “duplex formation enthalpy ΔH” value [3, 24] was -69.8 ± 2.2 kcal/mol. The “duplex formation entropy ΔS” value [4, 22] was -209 ± 6.6 cal/mol/K, the “duplex formation entropy ΔS” value [4, 23] was -200 ± 6.1 cal/mol/K and the “duplex formation entropy ΔS” value [4, 24] was -189 ± 6.7 cal/mol/K.
